B1: LINE1-full (parent)
chain: UACGUAGGUGGUUUUCCCCUGAUAGUGCUAAGGGGGCCUGGAAGUUUGGACUGGGCAGAGCUCAACACAGCGUGGCAAAGUGGCUGUGGCUAGACUGCCUCUCUGGAUUCCUCGUCACUCAGCAGGGCAUCUCUGAGAGAAAUGCC

Variants of: B1
Test: self-cleavage, relative activity (ratio to wild type); higher = more cleavage; in vitro, sequencing; the parent is a self-cleaving ribozyme

In order of rising self-cleavage:
1. UACGUAGGUGGUUUUCCCCUGAUAGUGCUAAGGGGGCCUGGAAGUUUGGACUGGGCAGAGCUCAACACAGCGUGGCAAAGUGGCUGUGGCUAGACUGCCUCUCUUGAUUCCUCGUCACUCAGCAGGGCAUCCCUGAGAGAAAUGCC  0
2. UACGUAGGUGGUUUUCCCCUGAUAGUGCUAAGGGGGCCUGGAAGUUUGGACUGGGCAGAGCUCAACACAGCGUGGCAAAGUGGCUGUGGCUAGACUGCCUCUCUGGAUUCCACGUCACACAGCAGGGCAUCUCUGAGAGAAAUGCC  0
3. UACGUAGGUGGUUUUCCCCUGAUAGUGCUAAGGGGGCCUGGAAGUUUGGACUGGGCAGAGAUCAACACUGCGUGGCAAAGUGGCUGUGGCUAGACUGCCUCUCUGGAUUCCUCGUCACUCAGCAGGGCAUCUCUGAGAGAAAUGCC  0.02
4. UACGUAGGUGGUUUUCCCCUGAUAGUGCUAAGGGGGCCUGGAAGUUUGGACUGGGCAGAGCCCAAUACAGCGUGGCAAAGUGGCUGUGGCUAGACUGCCUCUCUGGAUUCCUCGUCACUCAGCAGGGCAUCUCUGAGAGAAAUGCC  0.03
5. UACGUAGGUGGUUUUCCCCUGAUAGUGCUAAGGGGGCCUGGAAGUUUGGACUGGGAAGAGCUCAACACAGCGUGGCAAAGUGGCUGUGGCUAGACUGCCUCUCUGGAUUCCUCGUCACUCAGCAGGGCAUCUCUGAGAGAGAUGCC  0.07
6. UACGUAGGUGGUUUUCCCCUGAUAGUGCUAAGGGGGCCUGGAAGUUUGGGCUGGGCAGAGCUCAAUACAGCGUGGCAAAGUGGCUGUGGCUAGACUGCCUCUCUGGAUUCCUCGUCACUCAGCAGGGCAUCUCUGAGAGAAAUGCC  0.08
7. UACGUAGGUGGUUUUCCCCUGAUAGUGCUAAGGGGGCCUGGAAGUUUGGACUGGGCAGAGCCCAGCACAGCGUGGCAAAGUGGCUGUGGCUAGACUGCCUCUCUGGAUUCCUCGUCACUCAGCAGGGCAUCUCUGAGAGAAAUGCC  0.1
8. UACGUAGGUGGUUUUCCCCUGAUAGUGCUAAGGGGGCCUGGAAGUUUGGACUGGGCAGGGCUCAACACAGCGUGGCAAAGUGGCUGUGGCUAGACUGCCUCUCUGGAUUCCUCGUCACUCAGCAGGGCAUCUCUGAGAGAAACGCC  0.1
9. UACGUAGGUGGUUUUCCCCUGAUAGUGCUAAGGGGGCCUGGAAGUUCGGACUGGGCAGAGCUCAACACAGCGUGGCAAAGUGGGUGUGGCUAGACUGCCUCUCUGGAUUCCUCGUCACUCAGCAGGGCAUCUCUGAGAGAAAUGCC  0.11
10. UACGUAGGUGGUUUUCCCCUGAUAGUGCUAAGGGGGCCUGGAAGUUAGGACUGGGCAGAGCUCAACACAGCGUGGCAAAGUGGAUGUGGCUAGACUGCCUCUCUGGAUUCCUCGUCACUCAGCAGGGCAUCUCUGAGAGAAAUGCC  0.14
11. UACGUAGGUGGUUUUCCCCUGAUAGUGCUAGGGGGGCCUGGAAGUUUGGACUGGGCAGGGCUCAACACAGCGUGGCAAAGUGGCUGUGGCUAGACUGCCUCUCUGGAUUCCUCGUCACUCAGCAGGGCAUCUCUGAGAGAAAUGCC  0.16
12. UACGUAGGUGGUUUUCCCCUGAUAGUGCUAAGGGGGCCCGGAAGUUUGGACUGGGCAGAGCUCGACACAGCGUGGCAAAGUGGCUGUGGCUAGACUGCCUCUCUGGAUUCCUCGUCACUCAGCAGGGCAUCUCUGAGAGAAAUGCC  0.24
13. UACGUAGGUGGUUUUCCCCUGAUAGUGCUAAGGGGGCCUGGAAGUUUGGACUGGGCAGAGCUCAACACAGCGUGGCAAAGUGGCUGUGGCUAGACUGCCUCUCUGGAUUCCUCGUCACUCAGCAGGGCAUCUCUGAGAGGAACGCC  0.26
14. UACGUAGGUGGUUUUCCCCUGAUAGUGCUGAGGGGGCCUGGAAGUUUGGACUGGGCAGAGCUCAACACAGCGUGGCAAAGUGGCUGUGGCUAGACUGCCUCUCUGGACUCCUCGUCACUCAGCAGGGCAUCUCUGAGAGAAAUGCC  0.5
15. UACGUAGGUGGUUUUCCCCUGGUAGUGCUAAGGGGGCCUGGAAGUUUGGACUGGGCAGAGCUCAACACGGCGUGGCAAAGUGGCUGUGGCUAGACUGCCUCUCUGGAUUCCUCGUCACUCAGCAGGGCAUCUCUGAGAGAAAUGCC  0.59
16. UACGUAGGUGGUCUUCCCCUGAUAGUGCUAAGGGGGCCUGGAAGUUUGGACUGGGCAGAGCUCAACACAGCGUGGCUAAGUGGCUGUGGCUAGACUGCCUCUCUGGAUUCCUCGUCACUCAGCAGGGCAUCUCUGAGAGAAAUGCC  0.87
17. UACGAAGGUGGUUUUCCCCUGAUAGUGCUAAGGGGGCCUGGAAGUUUGGACUGGGCAGAGCUCAACACAGCGUGGCAAAGUGGCUGUGGCUAGACUGCCUCUCUGGAUUCCUCGUCACUCAGCAGGGCAUCUCUGAGAGGAAUGCC  0.88
18. UACGUAGGUGGUUUUCCCCUGAUAGUGCCAAGGGGGCCUGGAAGUUUGGACUGGGCAGAGCUCAACACAGCGUGGCAAAGUGGCUGUGGCUAGACUGCCUCUCUGGAUUCCUCGUCACUCAGCAGGGCAUCUCAGAGAGAAAUGCC  0.89
19. UACGUAGGUGGUUUUCCCCUGAUAGUGCUAAGGGGGCCUGGAAGUUUGGACUGGGCAGAGCUCAACACAGCGUGGCAAAGUGGCUGUGGCUAGACUGCCUCUCAGGAUUCCUCGUUACUCAGCAGGGCAUCUCUGAGAGAAAUGCC  0.9
20. UACAUAGGUGGUUUUCACCUGAUAGUGCUAAGGGGGCCUGGAAGUUUGGACUGGGCAGAGCUCAACACAGCGUGGCAAAGUGGCUGUGGCUAGACUGCCUCUCUGGAUUCCUCGUCACUCAGCAGGGCAUCUCUGAGAGAAAUGCC  0.92
21. UACGUAGGUGGUUUUCCCCUGAUAGUGCUAAGGGGGCCUGGAAGUUUGGACUGGGCAGAGCUCAACACAGCGUGCCAAAGUGGCUGUGGCUAGACUGCCUCUCUGGAUUCCUCGUCACUCAGCAGGGCAUCUCUGAGGGAAAUGCC  1.01
22. UACGUAGGUGGUUUUCCCCUGAUAGUGCUAAGGGGGCCUGGAAGUUUGGACUGGGCAGAGCUCAACACAGCGUGGCAAAGUGGCUGUGGCUAGACUGCCUCUCUGGAUUCCACGUCACUCAGCAGGGCAUCUCAGAGAGAAAUGCC  1.09
23. UACGUAGGUGGUUUUCCCCUGAUAGUGCUAAAGGGGCCUGGAAGUUUGGACUGGGCAGAGCUCAACACAGCGUGGCAAAGUGGCUGUGGCUAGACUGCCUCUCUGGAUUCCUCGUCACACAGCAGGGCAUCUCUGAGAGAAAUGCC  1.1
24. UACGUAGGUGGUUUUCCCCUGAUAGUGCUAAGGGGGCCUGGAAAUUUGGACUGGGCAGAGCUCAACACAGCGUGGCAAAGUGGCUGUGGCUAGACUGCCUCUCUGGAUUCCUCGUCGCUCAGCAGGGCAUCUCUGAGAGAAAUGCC  1.21
25. UACUUAGGUGGUUUUCCCCUGAUAGUGCUAAGGGGGCCUGGAAGUUUGGACUGGGCAGAGCUCAACACAGCGUGGCAAAGUGGCUGUGGCUAGACUGCCUCUCUGGAUUCCUCGUCACUCAGCAGGGCAUCUCUGAGAGAAAUGCC  1.25
26. UACGUAGGUGGUUCUCCCCUGAUAUUGCUAAGGGGGCCUGGAAGUUUGGACUGGGCAGAGCUCAACACAGCGUGGCAAAGUGGCUGUGGCUAGACUGCCUCUCUGGAUUCCUCGUCACUCAGCAGGGCAUCUCUGAGAGAAAUGCC  1.26
27. UACGUAGGUGGUUUUCCCCUGAUAGUGCUAAGGGGGCCUGGAAGUUUGGACUGGGCAGAGCUCAACACAGCGUGGCAAAGUGGCUGUGGCUAGACUGCCUCUCUAGAUUCCUCGUCACUCAGCAGGGCAUCUCUGGGAGAAAUGCC  1.28
28. UACGUAGGUGGUUUUCCCCUGAUAGUGCUAAGGGGGCCUGGAAGUUUGAACUGGGCAGAGCUCAACACAGCGUGGCAAAGUGGCUGUGGCUAGACUGCCUCUCUGGAUUCCUCGUCACUCACCAGGGCAUCUCUGAGAGAAAUGCC  1.28
29. UACGUAGGUGGUUUUCCCCUGAUAGUGCUAAGGGGGCCUGGAAGUUUGGACUGGGCAGAGCUCAACACAGCGUGGCUAAGUGGCUGUGGCUAGACUGCCUCUCUGGAUUCCCCGUCACUCAGCAGGGCAUCUCUGAGAGAAAUGCC  1.29
30. UACGUAGGUGGUUUUCCCCUGAUAGUGCUAAGGGGACCUGGAAGUUUGGACUGGGCAGAGCUCAACACAGCGUGGCAAAGUGGCUGUGGCUAGACUGCCUCUCUGGAUUCCCCGUCACUCAGCAGGGCAUCUCUGAGAGAAAUGCC  1.29
31. UACGUAGGUGGUUUUCCCCUGAUAGUGCUAAGGGGGCCUGGAAGUUUGGACUGGGCAGAGCUCAACACAGCGUGGCAAAGUGGCUGUGGCUAGACUGCCUCUCUGGGUUCCUCGUCACUCAGCAGGGCAUCUCUGAGGGAAAUGCC  1.42
32. UACGUAGGUGGUUUUCCCCUGAUAGUGCUAAGGGGGCCUGGAAGUUUGGACUGGGCAGAGCUCAACACAGCGUGGCAAAGUGGCUGUGGCUAGACUGCCUCUCUGGAUUCCUCGUCACUCAGCAGGGCAUCUCUAAGAGAAAUGUC  1.46
33. UACGUAGGUGGUUUUCCCCUGAUAGUGCUAAGGGGGCCUGGAAGUUUGGACUGGGCAGAGCUCAACACAGCGUGGCAAAGUGGCUGUGGCUAGACUGCCUCUCUGGAUUCCUCGUCACUCAGCAGGGCAUCUCUGGGAGAAGUGCC  1.47
34. UACGUAGAUGGUUUUCCCCUGAUAGUGCUAAGGGGGCCUGGAAGUUUGGACUGGGCAGAGCUCAACACAGCGUGGCAAAGUGGCUGUGGCUAGACUGCCUCUCUGGGUUCCUCGUCACUCAGCAGGGCAUCUCUGAGAGAAAUGCC  1.58
35. UACGUAGGUGGUUUUCUCCUGAUAGUGCUAAGGGGGCCUGGAAGUUUGGACUGGGCAGAGCUCAACACAGCGUGGCAAAGUGGCUGUGGCUAGACUGCCUCUCUGGAUUCCUCGUCACUCAGCAGGGCAUAUCUGAGAGAAAUGCC  1.58
36. UACGUAGGUGGUUUUCCCCUGAUAGUGCUAAGGGGGCCUGGAAGUUUGGACUGGGCAGAGCUCAACACAGCGUGGCAAAGUGGCUGUGGCUAGACUGCCUCUCUGGAUUCCUCGUCACUCAGCAGGGCGUCUCUGAGAGAGAUGCC  1.6
37. UACGUAGGUGGUUUUCCCCUGAUAGUGCUAAGGGGGCCUGGAAGUUUGGACUGGGCAGAGCUCAACACAGCGUGGCAAAGUGGCUGUGGCUAGACUGCCUCUCAGGAUUCCUCGUCACUCAGCAGGGCCUCUCUGAGAGAAAUGCC  1.61
38. UACGUAGGUGGUUUUCCCCUGAUAGCGCUAAGGGGGCCUGGAAGUUUGGACUGGGCAGAGCUCAACACAGCGUGGUAAAGUGGCUGUGGCUAGACUGCCUCUCUGGAUUCCUCGUCACUCAGCAGGGCAUCUCUGAGAGAAAUGCC  1.87
39. UACGUAGGUGGUUUUCCCCUGAUAGUGCUAAGGGGGCCUGGAAGUUUGGACUGGGCAGAGCUCAACACAGCGUGGCAAUGUGGCUGUGGCUAGACUGCCUCUCUGGAUUCCUCGUCACUCAGCAGGGCAUCUCUGAGAGAAGUGCC  2.33
